Source: patent US20190353654A1 (published 2019)

T1: CCL28 (UniProt Q9NRJ3 20-127)
T1 construct: range 20-127; also called CCL2820-127
T1 sequence (looked up): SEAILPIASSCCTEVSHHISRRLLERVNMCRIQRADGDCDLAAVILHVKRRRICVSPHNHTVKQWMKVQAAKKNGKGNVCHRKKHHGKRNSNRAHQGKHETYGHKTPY

T2: CCL27 (UniProt Q9Y4X3 25-112, limits assumed)
T2 sequence (looked up): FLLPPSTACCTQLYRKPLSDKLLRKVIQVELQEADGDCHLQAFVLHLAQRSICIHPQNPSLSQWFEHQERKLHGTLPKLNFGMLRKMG

T3: CXCL11 (UniProt O14625 22-94)
T3 sequence (looked up): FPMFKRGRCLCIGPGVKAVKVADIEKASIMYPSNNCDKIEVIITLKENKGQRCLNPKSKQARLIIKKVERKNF


What was measured:
[1] = biological target: T4, HIV-1 coat protein gp41-120 (HIV-1); test: MicroScale Thermophoresis, labeled receptor, ligand titrated, in 50% human serum
T4 construct: also called HIV coat proteins gp41-120; HIV surface protein gp41-120

[2] = biological target: T4, HIV-1 coat protein gp41-120; test: MicroScale Thermophoresis, labeled receptor, ligand titrated, in buffer (1x PBS, 5 mM DTT)
human insulin = human insulin (human, UniProt P01308 25-54; P01308 90-110); test: MicroScale Thermophoresis, 5 nM labeled receptor, insulin titrated
CCL28 [3] = biological target: T1, CCL28; test: MicroScale Thermophoresis, labeled receptor, ligand titrated, in buffer (1x PBS, 5 mM DTT)
CCL27 [4] = biological target: T2, CCL27; test: as above
CCL28 [5] = biological target: T1, CCL28; test: MicroScale Thermophoresis, labeled receptor, ligand titrated, in 50% human serum
CCL27 [6] = biological target: T2, CCL27; test: as above
CXCL11 [7] = biological target: T3, CXCL11; test: MicroScale Thermophoresis, labeled receptor, ligand titrated, in buffer (1x PBS, 5 mM DTT)
CXCL11 [8] = biological target: T3, CXCL11; test: MicroScale Thermophoresis, labeled receptor, ligand titrated, in 50% human serum
[9] = biological target: T4, HIV-1 coat protein gp41-120; test: as above; remark: listed apart in the source

Binder	Kd [1] [nM]	Kd [2] [nM]	binding result (human insulin)	Kd (CCL28 [3]) [nM]	Kd (CCL27 [4]) [nM]	Kd (CCL28 [5]) [nM]	Kd (CCL27 [6]) [nM]	Kd (CXCL11 [7]) [nM]	Kd (CXCL11 [8]) [nM]	Kd [9] [nM]
CXCR4^QTY (receptor, not shown: small tags and cut ends, Receptor labelled with NT647 dye (RED-NHS, on amines) for MST; sites not specified) MEGISIYTSDNYTEEMGSGDYDSMKEPCFREENANFNKTYQPTTYSTTYQTGTTGQGQTTQTMGYQKKQRSMTDKYRQHQSTADQQYTTTQPYWATDATANWYFGNFQCKATHTTYTTQQYSSTQTQAYTSQDRYLAIVHATNSQRPRKQQAEKTTYTGTWTPAQQQTTPDYTYANVSEADDRYICDRFYPNDLWTTTYQYQHTMTGQTQPGTTTQSCYCTTTSKLSHSKGHQKRKALKTTTTQTQAYYACWQPYYTGTSTDSFILLEIIKQGCEFENTVHKWTSTTEAQAYYHCCQQPTQYAYQGAKYKTSAQHAQTSTSRGSSQKTQSKGKRGGHSSTSTESESSSFHSS	185	117	no binding (tested: 0.153 nM-5,000 nM insulin)	–	–	–	–	–	–	–
CCR10^QTY (receptor, not shown: small tags and cut ends, Receptor labelled with NT647 dye (RED-NHS, on amines) for MST; sites not specified, Expressed in SF9 insect cells and purified without detergent) MGTEATEQVSWGHYSGDEEDAYSAEPLPELCYKADVQAFSRAFQPSVSLTVAAQGQAGNGQTQATHQAARRAARSPTSAHQQQQAQADQQQAQTQPYAAAGALQGWSLGSATCRTTSGQYSASYHAGYQYQACTSADRYVAIARALPAGPRPSTPGRAHQTSTTTWQQSQQQAQPAQQYSQDGQREGQRRCRLIFPEGLTQTVKGASATAQTAQGYAQPQGTMTACYALLGRTLLAARGPERRRALRTTTAQTAAYTTQQQPYSQAQQQDTADLLAARERSCPASKRKDVAQQTTSGQAQARCGQNPTQYAYQGLRFRQDLRRLLRGGSCPSGPQPRRGCPRRPRLSSCSAPTETHSLSWDN	–	–	no binding (tested: 0.153 nM-5,000 nM insulin)	9.3	3.1	21	5.6	–	–	–
CXCR7^QTY (receptor, The receptor was labelled with NT647 (RED-NHS dye on lysines, positions not defined) for MST. The letters do not carry this., Expressed in SF9 insect cells and purified without detergent; not shown: C-terminal His tag) MDLHLFDYSEPGNFSDISWPCNSSDCIVVDTVMCPNMPNKSTQQYTQSYTYTYTYTTGMTANSVVVWVNIQAKTTGYDTHCYTQNQATADQWTTQTTPTWTTSLVQHNQWPMGELTCKTTHQTYSTNQYGSTYYQTCMSVDRYLSITYFTNTPSSRKKMVRRTTCTQTWQQAYCTSQPDTYYQKTVTSASNNETYCRSFYPEHSIKEWLIGMEQTSTTQGYATPYSTTATYYYQLARAISASSDQEKHSSRKTTYSYTTTYQTCWQPYHTATQLDIFSILHYIPFTCRLEHALFTAQHTTQCQSQTHCCTNPTQYSYTNRNYRYELMKAFIFKYSAKTGLTKLIDASRVSETEYSALEQSTK	7	1.2	no binding (tested: 0.153 nM-5,000 nM insulin)	–	–	–	–	16	28	–
CCR5^QTY (receptor, not shown: small tags and cut ends, Receptor labelled with NT647 dye (RED-NHS, on amines) for MST; sites not specified, Expressed in SF9 insect cells and purified without detergent; also called detergent-free CCR5 variant) MDYQVSSPIYDINYYTSEPCQKINVKQIAARQQPPQYSQTFTYGFTGNMQTTQTQINCKRLKSMTDIYLQNQAISDQYYQQTTPYWAHYAAAQWDFGNTMCQQQTGQYFTGYYSGTYYTTQQTTDRYLAVVHAVFALKARTTTYGTTTSTTTWTTATYASQPGTTYTRSQKEGLHYTCSSHFPYSQYQFWKNFQTLKITIQGQVQPQQTMVTCYSGTQKTLLRCRNEKKRHRAVRQTFTTMTTYYQYWAPYNTTQQLNTFQEFFGLNNCSSSNRLDQAMQVTETQGMTHCCTNPTIYAYVGEKFRNYLLVFFQKHIAKRFCKCCSIFQQEAPERASSVYTRSTGEQEISVGL	–	3.1	no binding (tested: 0.153 nM-5,000 nM insulin)	–	–	–	–	–	–	4.3
